# Measurements published in patent US20210395344A1 (TWIST BIOSCIENCE, published 2021).
# Changes are numbered by the printed parent chain.
# B1: 1-12 (antibody, V domains shown)
# VH: EVQLLESGGGLVQPGGSLRLSCAASGITFSSYAMSWVRQAPGKGLEWVSGISGSGGSTYYADSVKGRFTISRDNSKNTLYLQMNSLRAEDTAVYYCAKHGSGTIFGVVIAKYYFDYWGQGTLVTVSS
# VL: QSALTQPASVSGSPGQSITISCTGTSSDVGHYNLVSWYQQHPGKAPKLMIYEGTKRPSGVSNRFSGSKSGNTASLTISGLQAEDEADYYCCSYAGSSSFVVFGGGTKLTVL
# B2: 1-31 (antibody, V domains shown)
# VH: EVQLLESGGGLVQPGGSLRLSCAASGFTFSSYAMNWVRQAPGKGLEWVSAISGSGGSTFYADSVKGRFTISRDNSKNTLYLQMNSLRAEDTAVYYCTRPPYGDYGDYWGQGTLVTVSS
# VL: B1 VL with H31K, T54S, K55Q, S97R, S98T, F99P
# B3: 1-17 (antibody, V domains shown)
# VH: EVQLLESGGGLVQPGGSLRLSCAASGFTFSSYAMYWVRQAPGKGLEWVSAISGSAGSTYYADSVKGRFTISRDNSKNTLYLQMNSLRAEDTAVYYCARDTNDFWSGYSIFDPWGQGTLVTVSS
# VL: QSALTQPASVSGSPGQSITISCTGTSSDIGSYNLVSWYQQHPGKAPKLMIYEGTKRPSGVSNRFSGSKSGNTASLTISGLQAEDEADYYCCSYAGSRTYVFGGGTKLTVL
# B4: 1-28 (antibody, V domains shown)
# VH: EVQLLESGGGLVQPGGSLRLSCAASGFTFSSYGMSWVRQAPGKGLEWVSAISGSGGGTYYADSVKGRFTISRDNSKNTLYLQMNSLRAEDTAVYYCASSSSWQFDYWGQGTLVTVSS
# VL: B1 VL with D28G, H31S, T54S, K55Q, S98T, F99H, V100Y
# B5: 1-2 (antibody, V domains shown)
# VH: EVQLLESGGGLVQPGGSLRLSCAASGFTFSSQAMSWVRQAPGKGLEWVSAISGSGGGTYYADSVKGRFTISRDNSKNTLYLQMNSLRAEDTAVYYCAKDRRFGEFDPWGQGTLVTVSS
# VL: B1 VL with D28G, H31S, T54I
# B6: 1-4 (antibody, V domains shown)
# VH: B5 VH
# VL: B1 VL with H31T, T54S, K55Q
# B7: 1-29 (antibody, V domains shown)
# VH: B3 VH
# VL: B3 VL
# B8: 1-23 (antibody, V domains shown)
# VH: EVQLLESGGGLVQPGGSLRLSCAASGFTFSSYAISWVRQAPGKGLEWVSIISGSGGSTYYADSVKGRFTISRDNSKNTLYLQMNSLRAEDTAVYYCAREGYRDYLWYFDLWGQGTLVTVSS
# VL: QSALTQPASVSGSPGQSITISCTGTSNDVGSYNLVSWYQQHPGKAPKLMIYEGNKRPSGVSNRFSGSKSGNTASLTISGLQAEDEADYYCCSYAGSYTVFGGGTKLTVL
# notes: also called variant 1-23
# B9: 1-24 (antibody, V domains shown)
# VH: B8 VH with I34M, S35N
# VL: B8 VL with N27S, S31Y, S96G, Y97S, T98V
# notes: also called variant 1-24
# B10: 1-17 (antibody, V domains shown)
# VH: B3 VH
# VL: B3 VL
# notes: also called variant 1-17
# B11: 1-42 (antibody, V domains shown)
# VH: B1 VH with I27V, G50A, S52T
# VL: B3 VL with I29V, S31R, T54G, G95S, R97S, Y99L
# notes: also called variant 1-42
# B12: 4-147 (antibody, V domains shown)
# VH: EVQLVESGGGLVQPGGSLRLSCAASGGTFSVYAMGWFRQAPGKEREGVAAISMSGDDAAYADSVKGRFTISADNSKNTAYLQMNSLKPEDTAVYYCAKISKDDGGKPRGAFFDSWGQGTLVTVSS
# B13: 4-124 (antibody, V domains shown)
# VH: EVQLVESGGGLVQPGGSLRLSCAASGNIFTRNVMGWFRQAPGKEREFVAAITSSGSTNYADSVKGRFTISADNSKNTAYLQMNSLKPEDTAVYYCARPSSDLQGGVDYWGQGTLVTVSS
# B14: 4-139 (antibody, V domains shown)
# VH: EVQLVESGGGLVQPGGSLRLSCAASGGGTFGSYAMGWFRQAPGKEREFVAAISIASGASGGTTNYADSVKGRFTISADNSKNTAYLQMNSLKPEDTAVYYCATTMNPNPRWGQGTLVTVSS
# B15: 4-119 (antibody, V domains shown)
# VH: EVQLVESGGGLVQPGGSLRLSCAASGFAFSSYAMGWFRQAPGKEREWVATINGDDYTYYADSVKGRFTISADNSKNTAYLQMNSLKPEDTAVYYCVATPGGYGLWGQGTLVTVSS
# B16: 1-42 (antibody, V domains shown)
# VH: B1 VH with I27V, G50A, S52T
# VL: B3 VL with I29V, S31R, T54G, G95S, R97S, Y99L
# Target: T1, SARS-CoV-2 Spike Glycoprotein S1 (subunit 1) (SARS-CoV-2, UniProt P0DTC2 16-685)
# T1 construct: also called S1 Monomer; SARS-CoV-2 S1
# Test: screening phage ELISA, mean
row,Binder,ELISA (Avg)
1,B1,25.7
2,B2,20.7
3,B3,27.4
4,B4,17.7
5,B5,24.2
6,B6,20.6
7,B7,23.8

# Target: T2, COVID S1 RBM Fc fusion (Antigen 2) (SARS-CoV-2, UniProt P0DTC2 437-508)
# T2 construct: domain: RBM
# Test: phage ELISA
row,Binder,ELISA fold over background
1,B8,1.6 fold over background
2,B9,1.3 fold over background
3,B10,1.3 fold over background
4,B11,1 fold over background

# Target: T3, COVID S1 RBD Fc fusion (Antigen 1) (SARS-CoV-2, UniProt P0DTC2 319-541)
# T3 construct: domain: RBD
# Test: phage ELISA
row,Binder,ELISA fold over background
1,B8,3.6 fold over background
2,B9,11 fold over background
3,B10,20.1 fold over background
4,B11,20.8 fold over background

# Target: T4, S1-Fc (SARS-CoV-2, UniProt P0DTC2 16-685)
# Test: phage ELISA
row,Binder,ELISA fold over background
1,B8,1.6 fold over background
2,B9,1.1 fold over background
3,B10,1.6 fold over background
4,B11,1.4 fold over background

# Target: T1, SARS-CoV-2 Spike Glycoprotein S1 …
# Test: column Inhibitor IC50 (assay not explained)
row,Binder,IC50
1,B1,33 nM
2,B2,9.2 nM

# Target: T2, COVID S1 RBM Fc fusion (Antigen 2)
# Test: phage ELISA
# Remark: another data set of the same source
row,Binder,ELISA fold over background
1,B8,1.6 fold over background
2,B9,1.3 fold over background
3,B10,1.3 fold over background
4,B11,1 fold over background

# Target: T3, COVID S1 RBD Fc fusion (Antigen 1)
# Test: phage ELISA
# Remark: another data set of the same source
row,Binder,ELISA fold over background
1,B8,3.6 fold over background
2,B9,11 fold over background
3,B10,20.1 fold over background
4,B11,20.8 fold over background

# Target: T4, S1-Fc
# Test: phage ELISA
# Remark: another data set of the same source
row,Binder,ELISA fold over background
1,B8,1.6 fold over background
2,B9,1.1 fold over background
3,B10,1.6 fold over background
4,B11,1.4 fold over background

# Target: T5, SARS-CoV-2 S1 (antigen of the Carterra SPR kinetics) (SARS-CoV-2, UniProt P0DTC2 16-685)
# Test: Carterra SPR
Binder,koff,kon
B8,0.159 s⁻¹,506000 M⁻¹ s⁻¹
B9,,1.94e+08 M⁻¹ s⁻¹
B10,,3.92e+08 M⁻¹ s⁻¹
B11,,9.1e+08 M⁻¹ s⁻¹

# Target: T6, SARS-CoV-2 S protein trimer (SARS-CoV-2, UniProt P0DTC2 16-1213)
# Test: column DB/S-T (format not explained)
row,Binder,Kd
1,B5,304 nM
2,B7,36.1 nM

# Target: human ACE2 (human, UniProt Q9BYF1 18-740)
# Test: not given
# human ACE2, sequence (Q9BYF1 18-740 limits assumed): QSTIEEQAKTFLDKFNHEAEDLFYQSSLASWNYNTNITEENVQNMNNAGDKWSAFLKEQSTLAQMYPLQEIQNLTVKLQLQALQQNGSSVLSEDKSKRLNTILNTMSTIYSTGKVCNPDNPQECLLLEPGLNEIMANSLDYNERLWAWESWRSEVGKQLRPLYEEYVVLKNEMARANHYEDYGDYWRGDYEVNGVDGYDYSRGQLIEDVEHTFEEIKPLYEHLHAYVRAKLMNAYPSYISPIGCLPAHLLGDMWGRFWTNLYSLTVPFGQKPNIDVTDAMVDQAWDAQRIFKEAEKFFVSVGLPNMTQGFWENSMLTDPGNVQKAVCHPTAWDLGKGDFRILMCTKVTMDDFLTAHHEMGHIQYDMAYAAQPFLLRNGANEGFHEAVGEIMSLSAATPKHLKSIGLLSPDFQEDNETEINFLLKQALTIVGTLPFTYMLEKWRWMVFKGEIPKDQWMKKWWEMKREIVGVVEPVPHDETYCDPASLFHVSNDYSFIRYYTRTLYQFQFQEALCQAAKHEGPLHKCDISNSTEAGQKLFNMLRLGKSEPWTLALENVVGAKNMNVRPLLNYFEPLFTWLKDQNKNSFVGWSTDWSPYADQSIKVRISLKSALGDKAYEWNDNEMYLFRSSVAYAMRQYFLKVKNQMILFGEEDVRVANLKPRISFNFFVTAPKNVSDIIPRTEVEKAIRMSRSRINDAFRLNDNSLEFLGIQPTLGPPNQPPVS
row,Binder,IC50
1,B12,68.3 nM
2,B13,54.4 nM
3,B14,20.2 nM
4,B15,4.37 nM

# Target: T1, SARS-CoV-2 Spike Glycoprotein S1 …
# Test: column Fc/S1 (format not explained)
row,Binder,Kd
1,B1,6.1 nM
2,B2,17.5 nM
3,B4,3240 nM
4,B6,25.5 nM

# Target: T1, SARS-CoV-2 Spike Glycoprotein S1 …
# Test: antibody kinetics, sensorgrams with fits; column S1
row,Binder,Kd
1,B1,6.1 nM
2,B16,364 nM

# Target: T1, SARS-CoV-2 Spike Glycoprotein S1 …
# Test: column DC/S1 (format not explained)
row,Binder,Kd
1,B2,14.4 nM
2,B3,6650 nM
3,B4,520 nM
4,B6,659 nM

# Target: T5, SARS-CoV-2 S1 (antigen of the Carterra …)
# Test: Carterra SPR
# Remark: another data set of the same source
Binder,Kd,koff,kon
B8,315 nM,0.159 s⁻¹,506000 M⁻¹ s⁻¹
B9,75.5 nM,,1.94e+08 M⁻¹ s⁻¹
B10,67.1 nM,,3.92e+08 M⁻¹ s⁻¹
B11,113 nM,,9.1e+08 M⁻¹ s⁻¹

# Target: T1, SARS-CoV-2 Spike Glycoprotein S1 …
# Test: screening phage ELISA, mean
# Remark: another data set of the same source
row,Binder,ELISA (Avg)
1,B1,25.7
2,B2,20.7
3,B3,27.4
4,B4,17.7
5,B5,24.2
6,B6,20.6
7,B7,23.8

# Target: T1, SARS-CoV-2 Spike Glycoprotein S1 …
# Test: ELISA binding titration
row,Binder,EC50
1,B1,2.15 nM
2,B16,7.92 nM
3,B2,0.203 nM
4,B4,2.28 nM
5,B5,0.523 nM
6,B6,2.56 nM

# Target: T6, SARS-CoV-2 S protein trimer
# Test: column Fc/S-T (format not explained)
row,Binder,Kd
1,B1,14 nM
2,B3,10 nM
3,B7,19.3 nM
